The values that follow are results of earlier work, collected in paper PMC12287344.

The data set deals with caspase-1 (Homo sapiens) (UniProt P29466).

For the substance caspase-1 (from UniProt P29466), the Kd (as a rule, the equilibrium constant for the complex coming apart) was 110 µM.
